# Earlier results, collected in patent publication US20260201061A1, “COMBINATION FOR TREATMENT AND PREVENTION OF CANCER” (Hummingbird Bioscience Pte. Ltd., priority 2022, published 2026).
# B1: ISU104: anti-HER3 antibody, mainly binds to domain III of HER3 (antibody, chains of the INN, looked up, V domains shown)
# VH: EVQLLESGGGLVQPGGSLRLSCAASGFTFSDYDMSWVRQAPGKGLEWVSTIDLDSGSIYYADSVQGRFTISRDNSKNTLYLQMNSLRAEDTAVYYCAKDLHMGPEGPFDYWGQGTLVTVSS
# VL: QSVLTQPPSASGTPGQRVTISCSGSSSNIGSNSVSWYQQLPGTAPKLLIYSDNHRPSGVPDRFSGSKSGTSASLAISGLRSEDEADYYCQGWDTSLSGHVFGGGTKLTVL
# B2: seribantumab: anti-HER3 antibody (antibody, chains of the INN, looked up)
# heavy: EVQLLESGGGLVQPGGSLRLSCAASGFTFSHYVMAWVRQAPGKGLEWVSSISSSGGWTLYADSVKGRFTISRDNSKNTLYLQMNSLRAEDTAVYYCTRGLKMATIFDYWGQGTLVTVSSASTKGPSVFPLAPCSRSTSESTAALGCLVKDYFPEPVTVSWNSGALTSGVHTFPAVLQSSGLYSLSSVVTVPSSNFGTQTYTCNVDHKPSNTKVDKTVERKCCVECPPCPAPPVAGPSVFLFPPKPKDTLMISRTPEVTCVVVDVSHEDPEVQFNWYVDGVEVHNAKTKPREEQFNSTFRVVSVLTVVHQDWLNGKEYKCKVSNKGLPAPIEKTISKTKGQPREPQVYTLPPSREEMTKNQVSLTCLVKGFYPSDIAVEWESNGQPENNYKTTPPMLDSDGSFFLYSKLTVDKSRWQQGNVFSCSVMHEALHNHYTQKSLSLSPG
# light: QSALTQPASVSGSPGQSITISCTGTSSDVGSYNVVSWYQQHPGKAPKLIIYEVSQRPSGVSNRFSGSKSGNTASLTISGLQTEDEADYYCCSYAGSSIFVIFGGGTKVTVLGQPKAAPSVTLFPPSSEELQANKATLVCLVSDFYPGAVTVAWKADGSPVKVGVETTKPSKQSNNKYAASSYLSLTPEQWKSHRSYSCRVTHEGSTVEKTVAPAECS
# Biological target: HER3 (Homo sapiens, UniProt P21860)
row,Molecule,inhibition of binding of heregulin (HRG)/ligand to HER3
1,Patritumab: anti-HER3 antibody [reference compound],inhibit HER3-mediated signaling by blocking binding of heregulin (HRG) to HER3
2,B1,dose-dependent inhibition of binding of HRG to HER3
3,B2,inhibit HER3-mediated signaling by blocking binding of heregulin (HRG) to HER3
